In PMC9701752:

B1: PTPRJ transmembrane domain construct for the AraTM assay, wild type (five extracellular residues, putative TMD, 20 cytoplasmic juxtamembrane residues) [human] / FLT3 transmembrane domain construct for the AraTM assay (five … (parent)
chain 1: QDPGVICGAVFGCIFGALVIVTVGGFIFWRKKRKDAKNNEVSFSQIKP
chain 2: QDNISFYATIGVCLLFIVVLTLLICHKYKKQFRYESQLQMVQVTG

Variants of: B1
Assay: DN-AraTM assay
Settings: with FLT3 transmembrane domain construct for the AraTM assay (five extracellular residues, putative TMD, 20 cytoplasmic juxtamembrane residues); FLT3-AraC co-expressed with PTPRJ TMD-AraC* competitor; n=9; parent: 0.8; read off a plot

Variant	response (normalized GFP signal (FLT3 alone = 1))
chain 1 G8L	0.5
chain 1 G12L	0.56
chain 1 G16L	0.55
